From article PMC9046087, “Structural basis of tethered agonism of the adhesion GPCRs ADGRD1 and ADGRF1” (Nature, 2022)

Each molecule was assayed on ADGRF1 (assay: Cell-surface expression by flow cytometry, ADGRF1). Conditions: ADGRF1 constructs (pF1 Gi part of table), anti-Flag antibody, three independent measurements in duplicate.
Type: cell-based, human
Protocol: The wild-type ADGRD1 and ADGRF1 and mutants used in functional studies were constructed into a pTT5 vector with a Flag tag at the N terminus for receptor expression measurement. The basal activity of ADGRD1 and ADGRF1 in mediating Gs signalling was measured by a cAMP accumulation assay using a LANCE Ultra cAMP detection kit (PerkinElmer) following the manufacturer’s instruction. In brief, 2 ml HEK293F cells (Invitrogen; cells were routinely tested for mycoplasma contamination) at a density of 1.2 × 10^6 cells per ml were transiently transfected with 2,000 ng plasmid of the wild-type or mutant receptor and cultured at 37 °C for 48 h with 5% CO2 atmosphere in a shaker shaking at 220 rpm. After collection, the cell-surface expression of the receptors was measured by incubating 10 μl cells with 15 μl monoclonal anti-Flag M2-FITC antibody (Sigma; 1:120 diluted in TBS supplemented with 4% BSA and 20% viability staining solution 7-AAD (Invitrogen)) at 4 °C for 20 min. After incubation, 175 μl TBS buffer was added and the fluorescent signal was measured using a flow cytometry reader (Guava easyCyte HT, Millipore).

Row | Molecule | Cell-surface expression (% of WT)
1 | Y668^3.40bA (protein, UniProt Q5T601 20-910, looked up, variant Y668A) Adhesion G-protein coupled …: GFLGKNDGIKTKKELIVNKKKHLGPVEEYQLLLQVTYRDSKEKRDLRNFLKLLKPPLLWSHGLIRIIRAKATTDCNSLNGVLQCTCEDSYTWFPPSCLDPQNCYLHTAGALPSCECHLNNLSQSVNFCERTKIWGTFKINERFTNDLLNSSSAIYSKYANGIEIQLKKAYERIQGFESVQVTQFRNGSIVAGYEVVGSSSASELLSAIEHVAEKAKTALHKLFPLEDGSFRVFGKAQCNDIVFGFGSKDDEYTLPCSSGYRGNITAKCESSGWQVIRETCVLSLLEELNKNFSMIVGNATEAAVSSFVQNLSVIIRQNPSTTVGNLASVVSILSNISSLSLASHFRVSNSTMEDVISIADNILNSASVTNWTVLLREEKYASSRLLETLENISTLVPPTALPLNFSRKFIDWKGIPVNKSQLKRGYSYQIKMCPQNTSIPIRGRVLIGSDQFQRSLPETIISMASLTLGNILPVSKNGNAQVNGPVISTVIQNYSINEVFLFFSKIESNLSQPHCVFWDFSHLQWNDAGCHLVNETQDIVTCQCTHLTSFSILMSPFVPSTIFPVVKWITYVGLGISIGSLILCLIIEALFWKQIKKSQTSHTRRICMVNIALSLLIADVWFIVGATVDTTVNPSGVCTAAVFFTHFFALSLFFWMLMLGILLAYRIILVFHHMAQHLMMAVGFCLGYGCPLIISVITIAVTQPSNTYKRKDVCWLNWSNGSKPLLAFVVPALAIVAVNFVVVLLVLTKLWRPTVGERLSRDDKATIIRVGKSLLILTPLLGLTWGFGIGTIVDSQNLAWHVIFALLNAFQGFFILCFGILLDSKLRQLLFNKLSALSSWKQTEKQNSSDLSAKPKFSKPFNPLQNKGHYAFSHTGDSSDNIMLTQFVSNE | 67 ± 1 % of WT
2 | H820^7.39bA (protein, UniProt Q5T601 20-910, looked up, variant H820A) Adhesion G-protein coupled …: GFLGKNDGIKTKKELIVNKKKHLGPVEEYQLLLQVTYRDSKEKRDLRNFLKLLKPPLLWSHGLIRIIRAKATTDCNSLNGVLQCTCEDSYTWFPPSCLDPQNCYLHTAGALPSCECHLNNLSQSVNFCERTKIWGTFKINERFTNDLLNSSSAIYSKYANGIEIQLKKAYERIQGFESVQVTQFRNGSIVAGYEVVGSSSASELLSAIEHVAEKAKTALHKLFPLEDGSFRVFGKAQCNDIVFGFGSKDDEYTLPCSSGYRGNITAKCESSGWQVIRETCVLSLLEELNKNFSMIVGNATEAAVSSFVQNLSVIIRQNPSTTVGNLASVVSILSNISSLSLASHFRVSNSTMEDVISIADNILNSASVTNWTVLLREEKYASSRLLETLENISTLVPPTALPLNFSRKFIDWKGIPVNKSQLKRGYSYQIKMCPQNTSIPIRGRVLIGSDQFQRSLPETIISMASLTLGNILPVSKNGNAQVNGPVISTVIQNYSINEVFLFFSKIESNLSQPHCVFWDFSHLQWNDAGCHLVNETQDIVTCQCTHLTSFSILMSPFVPSTIFPVVKWITYVGLGISIGSLILCLIIEALFWKQIKKSQTSHTRRICMVNIALSLLIADVWFIVGATVDTTVNPSGVCTAAVFFTHFFYLSLFFWMLMLGILLAYRIILVFHHMAQHLMMAVGFCLGYGCPLIISVITIAVTQPSNTYKRKDVCWLNWSNGSKPLLAFVVPALAIVAVNFVVVLLVLTKLWRPTVGERLSRDDKATIIRVGKSLLILTPLLGLTWGFGIGTIVDSQNLAWAVIFALLNAFQGFFILCFGILLDSKLRQLLFNKLSALSSWKQTEKQNSSDLSAKPKFSKPFNPLQNKGHYAFSHTGDSSDNIMLTQFVSNE | 77 ± 1 % of WT
3 | W804^6.53bA (protein, UniProt Q5T601 20-910, looked up, variant W804A) Adhesion G-protein coupled …: GFLGKNDGIKTKKELIVNKKKHLGPVEEYQLLLQVTYRDSKEKRDLRNFLKLLKPPLLWSHGLIRIIRAKATTDCNSLNGVLQCTCEDSYTWFPPSCLDPQNCYLHTAGALPSCECHLNNLSQSVNFCERTKIWGTFKINERFTNDLLNSSSAIYSKYANGIEIQLKKAYERIQGFESVQVTQFRNGSIVAGYEVVGSSSASELLSAIEHVAEKAKTALHKLFPLEDGSFRVFGKAQCNDIVFGFGSKDDEYTLPCSSGYRGNITAKCESSGWQVIRETCVLSLLEELNKNFSMIVGNATEAAVSSFVQNLSVIIRQNPSTTVGNLASVVSILSNISSLSLASHFRVSNSTMEDVISIADNILNSASVTNWTVLLREEKYASSRLLETLENISTLVPPTALPLNFSRKFIDWKGIPVNKSQLKRGYSYQIKMCPQNTSIPIRGRVLIGSDQFQRSLPETIISMASLTLGNILPVSKNGNAQVNGPVISTVIQNYSINEVFLFFSKIESNLSQPHCVFWDFSHLQWNDAGCHLVNETQDIVTCQCTHLTSFSILMSPFVPSTIFPVVKWITYVGLGISIGSLILCLIIEALFWKQIKKSQTSHTRRICMVNIALSLLIADVWFIVGATVDTTVNPSGVCTAAVFFTHFFYLSLFFWMLMLGILLAYRIILVFHHMAQHLMMAVGFCLGYGCPLIISVITIAVTQPSNTYKRKDVCWLNWSNGSKPLLAFVVPALAIVAVNFVVVLLVLTKLWRPTVGERLSRDDKATIIRVGKSLLILTPLLGLTAGFGIGTIVDSQNLAWHVIFALLNAFQGFFILCFGILLDSKLRQLLFNKLSALSSWKQTEKQNSSDLSAKPKFSKPFNPLQNKGHYAFSHTGDSSDNIMLTQFVSNE | 93 ± 4 % of WT
4 | N827^7.46bA (protein, UniProt Q5T601 20-910, looked up, variant N827A) Adhesion G-protein coupled …: GFLGKNDGIKTKKELIVNKKKHLGPVEEYQLLLQVTYRDSKEKRDLRNFLKLLKPPLLWSHGLIRIIRAKATTDCNSLNGVLQCTCEDSYTWFPPSCLDPQNCYLHTAGALPSCECHLNNLSQSVNFCERTKIWGTFKINERFTNDLLNSSSAIYSKYANGIEIQLKKAYERIQGFESVQVTQFRNGSIVAGYEVVGSSSASELLSAIEHVAEKAKTALHKLFPLEDGSFRVFGKAQCNDIVFGFGSKDDEYTLPCSSGYRGNITAKCESSGWQVIRETCVLSLLEELNKNFSMIVGNATEAAVSSFVQNLSVIIRQNPSTTVGNLASVVSILSNISSLSLASHFRVSNSTMEDVISIADNILNSASVTNWTVLLREEKYASSRLLETLENISTLVPPTALPLNFSRKFIDWKGIPVNKSQLKRGYSYQIKMCPQNTSIPIRGRVLIGSDQFQRSLPETIISMASLTLGNILPVSKNGNAQVNGPVISTVIQNYSINEVFLFFSKIESNLSQPHCVFWDFSHLQWNDAGCHLVNETQDIVTCQCTHLTSFSILMSPFVPSTIFPVVKWITYVGLGISIGSLILCLIIEALFWKQIKKSQTSHTRRICMVNIALSLLIADVWFIVGATVDTTVNPSGVCTAAVFFTHFFYLSLFFWMLMLGILLAYRIILVFHHMAQHLMMAVGFCLGYGCPLIISVITIAVTQPSNTYKRKDVCWLNWSNGSKPLLAFVVPALAIVAVNFVVVLLVLTKLWRPTVGERLSRDDKATIIRVGKSLLILTPLLGLTWGFGIGTIVDSQNLAWHVIFALLAAFQGFFILCFGILLDSKLRQLLFNKLSALSSWKQTEKQNSSDLSAKPKFSKPFNPLQNKGHYAFSHTGDSSDNIMLTQFVSNE | 97 ± 21 % of WT
5 | M675^3.47bA (protein, UniProt Q5T601 20-910, looked up, variant M675A) Adhesion G-protein coupled …: GFLGKNDGIKTKKELIVNKKKHLGPVEEYQLLLQVTYRDSKEKRDLRNFLKLLKPPLLWSHGLIRIIRAKATTDCNSLNGVLQCTCEDSYTWFPPSCLDPQNCYLHTAGALPSCECHLNNLSQSVNFCERTKIWGTFKINERFTNDLLNSSSAIYSKYANGIEIQLKKAYERIQGFESVQVTQFRNGSIVAGYEVVGSSSASELLSAIEHVAEKAKTALHKLFPLEDGSFRVFGKAQCNDIVFGFGSKDDEYTLPCSSGYRGNITAKCESSGWQVIRETCVLSLLEELNKNFSMIVGNATEAAVSSFVQNLSVIIRQNPSTTVGNLASVVSILSNISSLSLASHFRVSNSTMEDVISIADNILNSASVTNWTVLLREEKYASSRLLETLENISTLVPPTALPLNFSRKFIDWKGIPVNKSQLKRGYSYQIKMCPQNTSIPIRGRVLIGSDQFQRSLPETIISMASLTLGNILPVSKNGNAQVNGPVISTVIQNYSINEVFLFFSKIESNLSQPHCVFWDFSHLQWNDAGCHLVNETQDIVTCQCTHLTSFSILMSPFVPSTIFPVVKWITYVGLGISIGSLILCLIIEALFWKQIKKSQTSHTRRICMVNIALSLLIADVWFIVGATVDTTVNPSGVCTAAVFFTHFFYLSLFFWALMLGILLAYRIILVFHHMAQHLMMAVGFCLGYGCPLIISVITIAVTQPSNTYKRKDVCWLNWSNGSKPLLAFVVPALAIVAVNFVVVLLVLTKLWRPTVGERLSRDDKATIIRVGKSLLILTPLLGLTWGFGIGTIVDSQNLAWHVIFALLNAFQGFFILCFGILLDSKLRQLLFNKLSALSSWKQTEKQNSSDLSAKPKFSKPFNPLQNKGHYAFSHTGDSSDNIMLTQFVSNE | 107 ± 2 % of WT
6 | W734^ECL2A (protein, UniProt Q5T601 20-910, looked up, variant W734A) Adhesion G-protein coupled …: GFLGKNDGIKTKKELIVNKKKHLGPVEEYQLLLQVTYRDSKEKRDLRNFLKLLKPPLLWSHGLIRIIRAKATTDCNSLNGVLQCTCEDSYTWFPPSCLDPQNCYLHTAGALPSCECHLNNLSQSVNFCERTKIWGTFKINERFTNDLLNSSSAIYSKYANGIEIQLKKAYERIQGFESVQVTQFRNGSIVAGYEVVGSSSASELLSAIEHVAEKAKTALHKLFPLEDGSFRVFGKAQCNDIVFGFGSKDDEYTLPCSSGYRGNITAKCESSGWQVIRETCVLSLLEELNKNFSMIVGNATEAAVSSFVQNLSVIIRQNPSTTVGNLASVVSILSNISSLSLASHFRVSNSTMEDVISIADNILNSASVTNWTVLLREEKYASSRLLETLENISTLVPPTALPLNFSRKFIDWKGIPVNKSQLKRGYSYQIKMCPQNTSIPIRGRVLIGSDQFQRSLPETIISMASLTLGNILPVSKNGNAQVNGPVISTVIQNYSINEVFLFFSKIESNLSQPHCVFWDFSHLQWNDAGCHLVNETQDIVTCQCTHLTSFSILMSPFVPSTIFPVVKWITYVGLGISIGSLILCLIIEALFWKQIKKSQTSHTRRICMVNIALSLLIADVWFIVGATVDTTVNPSGVCTAAVFFTHFFYLSLFFWMLMLGILLAYRIILVFHHMAQHLMMAVGFCLGYGCPLIISVITIAVTQPSNTYKRKDVCALNWSNGSKPLLAFVVPALAIVAVNFVVVLLVLTKLWRPTVGERLSRDDKATIIRVGKSLLILTPLLGLTWGFGIGTIVDSQNLAWHVIFALLNAFQGFFILCFGILLDSKLRQLLFNKLSALSSWKQTEKQNSSDLSAKPKFSKPFNPLQNKGHYAFSHTGDSSDNIMLTQFVSNE | 87 ± 1 % of WT
